According to the DeepSol protein solubility set:

Test: soluble on expression in E. coli; label from the status in PepcDB or PDB records

With “MKKIDRVIESIQSRITEGRLKPGQKLPSIRQAVDEFGVSKNTVIEAYERLSARGLIRSVHGAGFFVCASTPAPLSKATQPAHIVEAVDRLTLLTAQLDQEKLPVRVGDGRPPQSWMNDALPLRMKGNIFKNFVGDPSGYGGVSGHLQLRELIAARSNRADMSVHPDQIVTTFGANHALDLIIRRYLEPGDVVLVDDPGYYPLLGKFKLAKIRAIGVPRTPTGPDLDVMETLAAAHGPKMFFTQSTCQNPTGSSMSLPVAHGVLQVAQRFGLMVIDNDPFTDLPGNAGVPLSALDAFNSVIAISSFSKLLSASFRVGYVIARPEVARELTELKLLTVVNSSRFSEMVIAELIKSQRYGRHLNKLVNRLEEARRDYHRKVRKLGLDVFCAQETGYYSFLQLPHTVDEGQLVRKASAAGIMLAPGRLFAVDENPARPALRINVTRADDPRFYRFLKRQVIDGQV” as the sequence, how does the “soluble on expression in E. coli” value read?
The value was “not soluble”.

Which “soluble on expression in E. coli” value does the source give for “MKFFDREREINEILHILNREPDDIYFIYGPLNSGKTALIKHIIENKLSDDYKVFYINFRTYLISEKREFIEAIFTTKKDDFFEKIKDKDEVLNLITKGVRILTGIPIPEVEFDKLFEEKINDAFQYLNSLLLEVKKSGKKPILIFDELQMIKDVVLNTENQRFSAFPSLRFGNGQKYLLKELFQFLVSLTKEQHLCHVFCLSSDSLFIEYVYSTGELEGRAKYLLVDDFDKETALKFMDFLAVENNINLTNEDKELIYSYVGGKPKDIKYVVEESKFKDLREILEFMLKDAVQKLDMFLDMLNYSKPKVDVGDEVIEIKKDNVIEALKLFKDEYEVSKKHIPVPVYTYLIKRNILFLNPIEGILKPQSYLVWNAIKRLL” here?
Its value is “not soluble”.

With “MGSDKIHHHHHHMDTMVSNSQTYLKILADLIKIKSVNDHELEVAEYLQDLFQENGIEAKILPLEGQRANLVAEIGEGAPVLAVSGHMDVVDPGNLAAWDNDPFTMTEKDGKLFGRGITDMKAGLAALVIAMIELKKQGLPKKGTIRLLATAGEEVGEEGSAAFYRDHYMEDAAGLLIAEPSTVYGTASEQKGSFDIKFTSKGTSVHSSTPEKGYNALVPLMQLLNEANTYFETIPAGEMGPVRFNIDVLNGGSQINSLPDLATALVNVRTIPEYDNNQVAKQIETFVKSYNANGAQINTDLIMNEFPIATSPSNQLVKIIQSLGKEYAGRDIVVAASPGITDASNLAKDKPHDFPFAVYGPGDGSQHQVNESLPKQMYLDFIEIYQKLFIEFLEK” as the sequence, how does the “soluble on expression in E. coli” value read?
Its value is “not soluble”.

With “MRIGLFGGSFDPIHLGHLLAASQAQEVLCLDRVLFVVAARPPHKVPVAPAEARYEMTLLAVAEDPRFTVSRLELDRPGPSYTVDTLREARRLFPQDELFFITGADAYRDVLTWKEGERLPEYATLVAVARPGYPLEEAPLPVVPLFVPEVGISSTEIRRRLKEGRSVRYWVPRAVEVYIEKHGLYR” as the sequence, how does the “soluble on expression in E. coli” value read?
The value was “soluble”.

For “MENIHDLWERALKSMEKKVSKPSFETWLKQTKANSIEDSTIIITAPNEFARDWLEKHYDELISETIDDLTGVRLYPKFVIPTSQLDEPFVEQELKKPMKQPPAQNGEMPNNMLNDKYTFDTFVIGSGNRFAHAASLAVAEAPAKAYNPLFIYGGVGLGKTHLMHAIGHYVMDHNPNAKVVYLSSEKFTNEFINAIRDNKAVNFRNKYRNVDVLLIDDIQFLAGKEQTQEEFFHTFNALHEDNKQIVISSDRPPKEIPTLEDRLRSRFEWGLITDITPPDLETRIAILRKKAKAENLDIPNEVMLYIANQIDTNIRELEGALIRVVAYSSLINQDMNADLAAEALKDIIPNAKPRVLTITDIQKTVGEYFHVKLEDFKAKKRTKSVAFPRQIAMYLSRELTDASLPKIGSEFGGRDHTTVIHAHEKISKLLSTDQELQDKIQDISDKLRSLEHHHHHH”, which “soluble on expression in E. coli” value is on record?
The value was “soluble”.

With “MNVGYLCTYTPKELIDAAGFTPIRIFAGDMQISLATAHIQSYACSQARGSLERALRGELDVQAVVFTRCCDTLMRLADIWERNTDMRVYNIEFPTRVEERSKDYYFNELKDFVKVLEEWGGGVTLESLRESLKLYHELEEKLKRLFSLKPDYEAAKRVQEMNVREAIKFVDERLRKAESEGGKPRVLITGSVCPFVEVYTLFEEAGFALKDDICTGTRFFTFNTPPREIGSVDEGLRFLVDKYFEKAPCPTKHFPNDDRFKYILEMAKDCDGVVFLLLKFCEPHFYDYPQLKERLEEMGKKVLLLELEFPIASIEQLRTRIEAFYEVIA” as the sequence, how does the “soluble on expression in E. coli” value read?
The value was “not soluble”.

Which “soluble on expression in E. coli” value does the source give for “MEKIERLRSAFDEAGIDGILLTNEHSRRYMANFTGTAGVVLISKKRAQFITDFRYVEQASKQAVGYEIVQHAGLIIDEVAKQVKELGIQKLGFEQDTLTYSSYSAHKEAIDAEFIPTSGLVEKLRLIKTDSEIKILKEAAQIADAAFEHILSFIRPGVSEIEVSNELEFFMRKQGATSSSFDIIVASGLRSALPHGVASEKVIETGDFVTLDFGAYYKGYCSDITRTIAVGEPSDKLKEIYNIVLEAQLRGVNGIKAGLTGREADALTRDYITEKGYGEYFGHSTGHGIGLEIHEAPGLAFRSDTVLEPGMAVTVEPGIYIPGIGGVRIEDDIIVTSEGNEVITKSPKELIIL” here?
Its value is “not soluble”.

Which “soluble on expression in E. coli” value does the source give for “SLEKLEFEDEAVEDSESGVYMRFMRSHKCYDIVPTSSKLVVFDTTLQVKKAFFALVANGVRAAPLWESKKQSFVGMLTITDFINILHRYYKSPMVQIYELEEHKIETWRELYLQETFKPLVNISPDASLFDAVYSLIKNKIHRLPVIDPISGNALYILTHKRILKFLQLFMSDMPKPAFMKQNLDELGIGTYHNIAFIHPDTPIIKALNIFVERRISALPVVDESGKVVDIYSKFDVINLAAEKTYNNLDITVTQALQHRSQYFEGVVKCNKLEILETIVDRIVRAEVHRLVVVNEADSIVGIISLSDILQALILTPAGAKQKETETE” here?
The value was “soluble”.

For “MIKVEIKPSQAQFTTRSGVSRQGKPYSLNEQLCYIDLGNEYPVLVKVTLDEGQPAYAPGLYTVHLSSFKVGQFGSLMIDRLRLVPAK”, which “soluble on expression in E. coli” value is on record?
The value was “soluble”.

With “MSKNLLIELGLEELPAYVVTPSEKQLGERLATFLTENRLSFEDIQTFSTPRRLAVRVSGLADQQTDLTEDFKGPAKKIALDADGNFSKAAQGFVRGKGLTTDAIEFREVKGEEYVYVTKHEAGKPAKEVLLGVTEVLSAMTFPVSMHWANNSFEYIRPVHTLTVLLNDEALELDFLDIHSGRVSRGHRFLGTETTITSADSYEADLRSQFVIADAKERQEMIVEQIKTLEVEQGVQVDIDEDLLNEVLNLVEFPTAFMGSFEAKYLDVPEEVLVTSMKNHQRYFVVRDQAGHLMPNFVSVRNGNDQAIENVIKGNEKVLVARLEDGEFFWREDQKLQIADLVAKLTNVTFHEKIGSLAEHMDRTRVIAASLAKEANLSAEEVTAVDRAAQIYKFDLLTGMVGEFDELQGIMGEKYALLAGEDAAVATAIREHYLPDAAGGALPETKVGAVLALAAKLDTLLSFFSVGLIPSGSNDPYALRRATQGIVRILDHFGWRIPMDKLVDSLYDLSFDSLTYANKADVMNFIRARVDKMMGKAAPKDIREAILASSTFV” as the sequence, how does the “soluble on expression in E. coli” value read?
Its value is “not soluble”.

With “MGSDKIHHHHHHMSIQTPIRGLRSFCVASKCLSFKHAAAQLFLTPSAVSHQIKQLEEQLGFMLFKRNTRSIELTSSGKQFYQSIQPIIHQLESTISEFTHNQQNHTIVISLPEFFASELFIPRLSEWSEKNPSINLQLETVKAGSEPSQIADLSIVLANGKPNASIVQELFPIRYAAACNKKLYKKLKNSGFKALKNTPLILHRSRPWSWHQWAENLGVNDFDPKQIIQFDSMFGVARAAQQGMGIALVPLPMSKTWFSEQLLVKLFDEELNTNDRYYLIQHENMESKVELTLFANWVKETFMTDYL” as the sequence, how does the “soluble on expression in E. coli” value read?
The value was “not soluble”.

Which “soluble on expression in E. coli” value does the source give for “MGSDKIHHHHHHMIRYPVLKEGATIGVTAPSSGVPKDLHDLVKAACERMEERGFRVVCGETVWTQEKAKSSEAKKRATELQAMMEDDAIDLMIPPWGGQLLIEVLQFLDFEQWEPKWILGYSDTSLLLLAITLNTGIATAHGTNLVDLRGEYSDDTTAMWQPVLSTKIGDSIVQHSSKKYQKEWDFERPTPCVFHLTEKTKWQGVPKQTLSINGRLLGGCIDVIRHLIGTPYGDVTRFQADVIKGAPIIWFFENCELTTTDLRRTLVQMKLAGWFDHCSGIMFGRSPTNTPVEDYTVDDVFRDLYEELKVPLMTDIDCGHVPPQLTLINGAYAEVKLNDGKGIVTQFFKE” here?
Its value is “not soluble”.

Which “soluble on expression in E. coli” value does the source give for “MGSDKIHHHHHHMEFYDIVIVGGGPAGLAAAASAKKNKIDKILILERDCELGGILNQCIHNGFGLHTFKEELTGPEYAGRFIKEVKELGIEYRLNTMVMDISTGDESENGSNDKIVTAMNRTDGLFHIAAKTVILAMGCRERARGALNIPGYRPAGIFSAGTAQRLVNIEGYMPGRKVVILGSGDIGLIMARRMTLEGAKVQVVAELMPYSGGLKRNIVQCLDDFNIPLKLSHTVVDIKGRERVEGITLAQVDEHNKPIEGTEEFYECDTLLLSCGLIPENEISKTAGVELNPVTSGPVVNESLETNVPGVFACGNVLHVHDLVDYVSEEATAAGRHAAEYVKNGGDKSCDGKEISITATGGVRYTVPSTINTAQMDDTVTVRFRVGAVYKNCYIAVYLDDKQLQHRKRPVMAPGEMEQVVLQKKQLIETDNPCTITIKIEEA” here?
The value was “not soluble”.

With “MLGKEELRNQSIAVIGAGIIGLSIGLKLQQQGYHVTIFDPNGVGNGCSKGNAGHIATEQVFPLATPALIPQLPKMLLSSTSPVSIRWQDLPNTVGWMIRFLLKAKPSAAEASTQAITSLNTRAVQSWNLLLDSIGKSGLIKMDGSLLTFESESLFEGYQSTLDALAEQGVRYELWTQNEIRRRLPELSRKVRFGVFFPETGHTINPYALCVELSNAFEKLGGSLVHEEVDAVSKNGDVLVNTQRMSFDKIVVAAGVHSKALVRQLTGVNVPIQAERGYHLMMNDKRESLPFPISSADRKFIMTPMSEGLRLAGTVEYADVKSPPNMKRAEMLYQQGNAMFESGLNPLEQQEKWMGNRPSTIDSLPVIDQCFNGKIFLAFGHQHLGLTQAAITADLISELVADKPTSVNITPFTLQRFALEHHHHHH” as the sequence, how does the “soluble on expression in E. coli” value read?
Its value is “not soluble”.

Which “soluble on expression in E. coli” value does the source give for “MGSDKIHHHHHHMTPNIYQQLGLKKVINACGKMTILGVSSVAPEVMQATARAASAFVEIDALVEKTGELVSRYTGAEDSYITSCASAGIAIAVAAAITHGDRARVALMPDSSGMANEVVMLRGHNVDYGAPVTSAIRLGGGRIVEVGSSNLATRWQLESAINEKTAALLYVKSHHCVQKGMLSIDDFVQVAQANHLPLIVDAAAEEDLRGWVASGADMVIYSGAKAFNAPTSGFITGRKTWIAACKAQHQGIARAMKIGKENMVGLVYALENYHQGQTTVTAAQLQPVAEAISAIHGLYADIEQDEAGRAIWRIRVRVNASELGLNAQDVEAQLRGGEIAIYARKYQLHQGVFSLDPRTVAEGEMALIVARLREIAEHAAD” here?
The value was “not soluble”.

For “MRRKIMMATLIVIAVNFIWSGQPVKACTRAVYIGPDNMVITGRTMDWKEDIQSNLYLFPRGIKRAGYNKGNTVEWISKYGSIVATGYDIGTCDGMNEKGLVASLLFLPESIYVRPNDTRPVMGISIWTQYVLDNFATVSEAVEELKKQTFRIDAPDMPNGSASTLHMAITDETGNSAVLEYIDGNLIIHEGKEYQVMTNSPRYDLQLAVNDYWKEVGGLNMLPGTNRSSDRFVRASFYIHAIPQTSDAKIAVPSVLSVMRNVSVPFGITTLDKPYISSTRWRSVSDQKNRVYYFESTLTPNLFWIDLHKVDFSPNASIKKLSLTHGEVYAGDVVKDFKDSRSFTFMFELPK”, which “soluble on expression in E. coli” value is on record?
The value was “not soluble”.

For “MKESLIEAKVMDYGKLKDIQKEILYYKLYVDALKKKGIKEKVDPPPTLPKSIVSSVLTGGIPRDGPLQIELVSNDVVKIKEYNTLVKIQSDSRLPLYAIVEYRDTDIRVYLAYRENPSIVGLDLGLRHLITIVAIKDTKPWKVRFFDEPKLMEKFANFLSENQGIIKLEEMKSNAKRIIYEAVSFIEDLEPKVVAMENLEYFETKTGKGLRALQNMLENEIRRRGIRYRKIDPYNTSRVCAKCGYKKGEILGSLFVCPACGYKADRDYNAAYNIALKCYYTCLEHHHHHH”, which “soluble on expression in E. coli” value is on record?
The value was “not soluble”.
